For data set [1], the system named is CCCCC/C=C\C/C=C\CCCCCCCCO
The experiment in a line: purified protein, by the assay type. As to conditions: other: lipoxygenase produced as in Example 4, standard assay, 25° C., pH 7.0.

For data set [2], the system named is CCCCC/C=C\C/C=C\CCCCCCCC(=O)OC. The experiment in a line: purified protein, by the assay type. As to conditions: other: lipoxygenase produced as in Example 4, standard assay, 25° C., pH 7.0.
The test system of data set [3] is CCCCC/C=C\C/C=C\C/C=C\C/C=C\CCCC(=O)O. The data set is described as follows: purified protein, by the assay type. As to conditions: other: lipoxygenase produced as in Example 4, standard assay, 25° C., pH 7.0.
For another data set, the target named is lipoxygenase (Gaeumannomyces tritici, UniProt Q8X150). The experiment in a line: Determination of substrate specificity (Michaelis-Menten kinetics, hydroperoxide formation at 234 nm). To be noted: lipoxygenase produced as in Example 4, standard assay, 25° C., pH 7.0.
Sequence of lipoxygenase (Q8X150 17-618): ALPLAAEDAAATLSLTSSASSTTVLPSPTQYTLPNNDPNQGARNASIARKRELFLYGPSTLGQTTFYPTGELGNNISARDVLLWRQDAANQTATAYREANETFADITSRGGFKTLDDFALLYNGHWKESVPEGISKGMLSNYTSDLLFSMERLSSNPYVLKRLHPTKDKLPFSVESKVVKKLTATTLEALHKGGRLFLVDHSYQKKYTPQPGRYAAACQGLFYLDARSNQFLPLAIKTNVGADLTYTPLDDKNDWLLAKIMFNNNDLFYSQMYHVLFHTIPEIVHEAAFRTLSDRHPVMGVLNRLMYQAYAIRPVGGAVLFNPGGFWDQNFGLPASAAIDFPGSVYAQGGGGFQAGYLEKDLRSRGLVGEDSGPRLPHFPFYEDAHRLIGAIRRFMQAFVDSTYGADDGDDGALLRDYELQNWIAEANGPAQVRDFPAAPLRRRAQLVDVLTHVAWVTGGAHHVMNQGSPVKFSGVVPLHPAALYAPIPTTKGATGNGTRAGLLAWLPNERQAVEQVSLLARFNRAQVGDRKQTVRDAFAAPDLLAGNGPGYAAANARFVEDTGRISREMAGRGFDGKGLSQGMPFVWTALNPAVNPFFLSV

Regarding lipoxygenase (Gaeumannomyces tritici), the figures for the Km in data set [1], in data set [2] and in data set [3] were 3.4 µM, 164 µM and 17.5 µM, respectively.
On to `CCCCC/C=C\C/C=C\CCCCCCCC(=O)O` [Linoleic acid], for which the kcat at lipoxygenase (kcat (or Vmax)) is reported as 5.63 micro-mol/min/mg. Moreover, at lipoxygenase, the Km (usually the substrate concentration at which the rate is half of its maximum) was 6.8 µM.

Source of the values: patent US7456001B2, “Lipoxygenase” (Novozymes A/S, priority 2000, dated 2008).
